In US20220354880A1, “COMBINATION TREATMENT FOR CANCER” (AstraZeneca AB, priority 2019, published 2022):

B1: MEDI4736: anti-PD-L1 antibody selective for a PD-L1 polypeptide; SEQ ID NOs: 3-10 (antibody, V domains shown)
VH: EVQLVESGGGLVQPGGSLRLSCAASGFTFSRYWMSWVRQAPGKGLEWVANIKQDGSEKYYVDSVKGRFTISRDNAKNSLYLQMNSLRAEDTAVYYCAREGGWFGELAFDYWGQGTLVTVSS
VL: EIVLTQSPGTLSLSPGERATLSCRASQRVSSSYLAWYQQKPGQAPRLLIYDASSRATGIPDRFSGSGSGTDFTLTISRLEPEDFAVYYCQQYGSLPWTFGQGTKVEIK
modifications: MEDI4736 VH; Sequence 72 from PCT/US2010/058007; MEDI4736 VL; Sequence 77 from PCT/US2010/058007

What was measured:
MC-38 OVA = experiment: Low dose cisplatin anti-tumor activity in MC-38 OVA mice; assay type: in vivo; conditions: cisplatin 5 mg/kg (approximately 60 mg/m^2 human dose)
Method: FIGS. 1A-1C relate to Example 1.
A low dose treatment of cisplatin, 5 mg/kg (equivalent to approximately 60 mg/m^2 human dose) was tested for anti-tumor activity in MC-38 OVA mice.

xenograft model = conditions: via a T-cell dependent mechanism; cited from earlier work
human T-cell = conditions: in vitro; cited from earlier work

Molecule	anti-tumor activity (tumor growth inhibition) (MC-38 OVA)	tumor growth in a xenograft model (xenograft model)	PD-L1-mediated suppression of human T-cell activation (human T-cell)
N.N.[Cl][Pt][Cl] [cisplatin]	produces most tumor growth inhibition		
B1		inhibit tumor growth in a xenograft model	can relieve PD-L1-mediated suppression of human T-cell activation in vitro
